{
  "source": "IntAct's records for PubMed 19933576",
  "parents": {"B1": {"name": "Prelamin-A/C (Homo sapiens), P02545 (parent)", "chain": "METPSQRRATRSGAQASSTPLSPTRITRLQEKEDLQELNDRLAVYIDRVRSLETENAGLRLRITESEEVVSREVSGIKAAYEAELGDARKTLDSVAKERARLQLELSKVREEFKELKARNTKKEGDLIAAQARLKDLEALLNSKEAALSTALSEKRTLEGELHDLRGQVAKLEAALGEAKKQLQDEMLRRVDAENRLQTMKEELDFQKNIYSEELRETKRRHETRLVEIDNGKQREFESRLADALQELRAQHEDQVEQYKKELEKTYSAKLDNARQSAERNSNLVGAAHEELQQSRIRIDSLSAQLSQLQKQLAAKEAKLRDLEDSLARERDTSRRLLAEKEREMAEMRARMQQQLDEYQELLDIKLALDMEIHAYRKLLEGEEERLRLSPSPTSQRSRGRASSHSSQTQGGGSVTKKRKLESTESRSSFSQHARTSGRVAVEEVDEEGKFVRLRNKSNEDQSMGNWQIKRQNGDDPLLTYRFPPKFTLKAGQVVTIWAAGAGATHSPPTDLVWKAQNTWGCGNSLRTALINSTGEEVAMRKLVRSVTVVEDDEDEDGDDLLHHHHGSHCSSSGDPAEYNLRSRTVLCGTCGQPADKASASGSGAQVGGPISSGSSASSVTVTRSYRSVGGSGGGSFGDNLVTRSYLLGNSSPRTQSPQNCSIM", "partner": "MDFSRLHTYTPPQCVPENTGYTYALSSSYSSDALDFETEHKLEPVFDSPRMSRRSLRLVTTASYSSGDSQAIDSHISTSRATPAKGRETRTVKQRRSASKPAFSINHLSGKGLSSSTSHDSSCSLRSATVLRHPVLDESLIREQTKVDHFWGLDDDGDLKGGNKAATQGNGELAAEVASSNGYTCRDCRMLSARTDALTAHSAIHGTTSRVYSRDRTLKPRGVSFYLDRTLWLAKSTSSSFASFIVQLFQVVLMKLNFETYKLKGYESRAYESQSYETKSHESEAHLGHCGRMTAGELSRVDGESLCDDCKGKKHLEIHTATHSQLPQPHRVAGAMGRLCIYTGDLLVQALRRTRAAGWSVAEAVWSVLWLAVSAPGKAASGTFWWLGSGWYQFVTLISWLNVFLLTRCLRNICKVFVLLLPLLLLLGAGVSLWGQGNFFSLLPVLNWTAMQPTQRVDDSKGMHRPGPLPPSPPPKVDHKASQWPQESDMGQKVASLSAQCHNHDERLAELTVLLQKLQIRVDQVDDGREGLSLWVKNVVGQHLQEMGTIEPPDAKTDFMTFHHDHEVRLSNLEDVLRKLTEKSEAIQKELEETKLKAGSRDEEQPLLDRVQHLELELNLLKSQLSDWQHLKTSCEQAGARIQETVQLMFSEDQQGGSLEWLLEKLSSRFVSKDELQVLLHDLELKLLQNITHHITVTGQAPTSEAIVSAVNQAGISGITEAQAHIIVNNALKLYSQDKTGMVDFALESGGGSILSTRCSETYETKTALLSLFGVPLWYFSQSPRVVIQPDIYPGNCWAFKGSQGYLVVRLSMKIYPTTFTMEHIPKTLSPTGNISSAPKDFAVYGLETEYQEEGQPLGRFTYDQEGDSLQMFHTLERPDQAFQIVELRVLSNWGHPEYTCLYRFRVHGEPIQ"}},
  "data": [
    {"variants_of": "B1", "details": "with sun1_mouse Sun1, Q9D666", "values": [
      {"variant": "L530P", "effect of a mutation on the interaction": "disrupting interaction"},
      {"variant": "R527P", "effect of a mutation on the interaction": "disrupting interaction"}
    ]}
  ]
}
